± gives the uncertainty stated by the source.
Assay: self-splicing fitness, log relative to wild type (ln ratio); higher = more splicing; Tetrahymena group I intron in knt gene, E. coli kanamycin selection, DiMSum; sequences stand for … in CUCUCU…GGAGGGAAAAGUUAUCAGGCAUGCACCUGGUAGCUAGUCUUUAAACCAAUAGAUUGCAUCGGUUUAAAAGGCAAGACCGUCAAAUUGCGGGAAAGGGGUCAACAGCCGUUCAGUACCAAGUCUCAGGGGAAACUUUGAGAUGGCCUUGCAAAGGGUAUGGUAAUAAGCUGACGGACAUGGUCCUAACCACGCAGCCAAGUCCUAAGUCAACAGAUCUUCUGUUGAUAUGGAUGCAGUUCACAGACUAAAUGUCGGUCGGGGAAGAUGUAUUCUUCUCAUAAGAUAUAGUCGGACCUCUCCUUAAUGGGAGCUAGCGGAUGAAGUGAUGCAACACUGGAGCCGCUGGGAACUAAUUUGUAUGCGAAAGUAUAUUGAUUAGUUUUGGAGUACUCGUGGUCG
Summary of the method: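 Fitness was computed with DiMSum as the error-weighted combination of replicate fold changes, kanamycin versus none, each normalised to wild type. The library randomised all eight intron nucleotides of the P1ex region, with the intron placed in the knt kanamycin-resistance gene on pET-22b(+) in E. coli BL21(DE3). Six replicate transformations were grown overnight at 37°C or 30°C on LB agar with or without 25 μg/mL kanamycin, plus 100 μg/mL carbenicillin, 50 μM IPTG and 0.2% rhamnose. Pooled colonies were amplicon-sequenced on an Illumina HiSeq 2500.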

With CGAAAGCAAUAUUACGUUUU the “self-splicing fitness (ln)” value (30 °C) was -4.51 ± 0.24 and the “self-splicing fitness (ln)” value (37 °C) was -2.31 ± 0.18.

In the case of CGACAGCAAUAUUACGAAAG, the “self-splicing fitness (ln)” value (30 °C) is reported as -1.22 ± 0.13 and the “self-splicing fitness (ln)” value (37 °C) is reported as -0.409 ± 0.17.

In the case of CGACAGCAAUAUUACGAAUA, the “self-splicing fitness (ln)” value (30 °C) is reported as -2.16 ± 0.18 and the “self-splicing fitness (ln)” value (37 °C) is reported as -3.12 ± 0.3.

In the case of CGACAGCAAUAUUACGAUCC, the “self-splicing fitness (ln)” value (30 °C) is reported as -0.0657 ± 0.16 and the “self-splicing fitness (ln)” value (37 °C) is reported as -0.196 ± 0.19.

With CGACAGCAAUAUUACGAUGC the “self-splicing fitness (ln)” value (30 °C) was -3.57 ± 0.17 and the “self-splicing fitness (ln)” value (37 °C) was -1.92 ± 0.18.

In the case of CGACAGCAAUAUUACGCAAU, the “self-splicing fitness (ln)” value (30 °C) is reported as -4.5 ± 0.33 and the “self-splicing fitness (ln)” value (37 °C) is reported as -2.81 ± 0.22.

For CGACAGCAAUAUUACGCACC, the “self-splicing fitness (ln)” value (30 °C) was -0.97 ± 0.21 and the “self-splicing fitness (ln)” value (37 °C) was -1.79 ± 0.21.

In the case of CGACAGCAAUAUUACGCACU, the “self-splicing fitness (ln)” value (30 °C) is reported as -1.22 ± 0.09 and the “self-splicing fitness (ln)” value (37 °C) is reported as 0.0742 ± 0.12.

For CGACAGCAAUAUUACGCAGA, the “self-splicing fitness (ln)” value (30 °C) was -2.61 ± 0.1 and the “self-splicing fitness (ln)” value (37 °C) was -2.06 ± 0.1.

With CGACAGCAAUAUUACGCCCA the “self-splicing fitness (ln)” value (30 °C) was -1.56 ± 0.11 and the “self-splicing fitness (ln)” value (37 °C) was -0.725 ± 0.11.

With CGACAGCAAUAUUACGCCCG the “self-splicing fitness (ln)” value (30 °C) was 0.138 ± 0.24.

With CGACAGCAAUAUUACGCCUC the “self-splicing fitness (ln)” value (30 °C) was -2.24 ± 0.2 and the “self-splicing fitness (ln)” value (37 °C) was -0.498 ± 0.2.

With CGACAGCAAUAUUACGCCUU the “self-splicing fitness (ln)” value (30 °C) was -2.4 ± 0.22 and the “self-splicing fitness (ln)” value (37 °C) was -1.61 ± 0.23.

For CGACAGCAAUAUUACGCUGA, the “self-splicing fitness (ln)” value (30 °C) was -3.49 ± 0.28 and the “self-splicing fitness (ln)” value (37 °C) was -2.66 ± 0.28.

With CGACAGCAAUAUUACGCUGU the “self-splicing fitness (ln)” value (30 °C) was -3.04 ± 0.14 and the “self-splicing fitness (ln)” value (37 °C) was -2.55 ± 0.15.

For CGACAGCAAUAUUACGGACC, the “self-splicing fitness (ln)” value (30 °C) was -2.09 ± 0.083 and the “self-splicing fitness (ln)” value (37 °C) was -0.0291 ± 0.11.

In the case of CGACAGCAAUAUUACGGGAA, the “self-splicing fitness (ln)” value (30 °C) is reported as -3.44 ± 0.17 and the “self-splicing fitness (ln)” value (37 °C) is reported as -1.92 ± 0.099.

For CGACAGCAAUAUUACGGUGC, the “self-splicing fitness (ln)” value (30 °C) was -3.61 ± 0.26 and the “self-splicing fitness (ln)” value (37 °C) was -2.53 ± 0.16.

For CGACAGCAAUAUUACGUAAG, the “self-splicing fitness (ln)” value (30 °C) was -0.425 ± 0.08 and the “self-splicing fitness (ln)” value (37 °C) was 0.126 ± 0.095.

In the case of CGACAGCAAUAUUACGUGGA, the “self-splicing fitness (ln)” value (30 °C) is reported as -3.38 ± 0.17 and the “self-splicing fitness (ln)” value (37 °C) is reported as -3.17 ± 0.18.

In the case of CGACAGCAAUAUUACGUGUU, the “self-splicing fitness (ln)” value (30 °C) is reported as -2.38 ± 0.086 and the “self-splicing fitness (ln)” value (37 °C) is reported as -3.04 ± 0.17.

With CGAGAGCAAUAUUACGAAAA the “self-splicing fitness (ln)” value (37 °C) was -2.18 ± 0.37.

With CGAGAGCAAUAUUACGAAUC the “self-splicing fitness (ln)” value (30 °C) was -2.29 ± 0.27.

With CGAGAGCAAUAUUACGACAA the “self-splicing fitness (ln)” value (30 °C) was -1.65 ± 0.39.

In the case of CGAGAGCAAUAUUACGACUA, the “self-splicing fitness (ln)” value (30 °C) is reported as -2.56 ± 0.46.

With CGAGAGCAAUAUUACGCAAC the “self-splicing fitness (ln)” value (30 °C) was -1.2 ± 0.34 and the “self-splicing fitness (ln)” value (37 °C) was -2.34 ± 0.35.

For CGAGAGCAAUAUUACGCAGU, the “self-splicing fitness (ln)” value (30 °C) was -1.96 ± 0.41 and the “self-splicing fitness (ln)” value (37 °C) was -2.21 ± 0.47.

In the case of CGAGAGCAAUAUUACGCCCA, the “self-splicing fitness (ln)” value (37 °C) is reported as -0.872 ± 0.36.

For CGAGAGCAAUAUUACGCCUA, the “self-splicing fitness (ln)” value (30 °C) was -2.4 ± 0.36 and the “self-splicing fitness (ln)” value (37 °C) was -0.235 ± 0.38.

For CGAGAGCAAUAUUACGCGUG, the “self-splicing fitness (ln)” value (30 °C) was -1.48 ± 0.13 and the “self-splicing fitness (ln)” value (37 °C) was -2.95 ± 0.23.

With CGAGAGCAAUAUUACGCUAC the “self-splicing fitness (ln)” value (37 °C) was -2.11 ± 0.4.

With CGAGAGCAAUAUUACGGACG the “self-splicing fitness (ln)” value (30 °C) was -1.25 ± 0.23 and the “self-splicing fitness (ln)” value (37 °C) was -0.913 ± 0.42.

With CGAGAGCAAUAUUACGGAUU the “self-splicing fitness (ln)” value (30 °C) was -2.72 ± 0.39.

With CGAGAGCAAUAUUACGGCGC the “self-splicing fitness (ln)” value (30 °C) was -2.76 ± 0.21 and the “self-splicing fitness (ln)” value (37 °C) was -1.62 ± 0.21.

With CGAGAGCAAUAUUACGGGCG the “self-splicing fitness (ln)” value (30 °C) was -2.3 ± 0.14 and the “self-splicing fitness (ln)” value (37 °C) was -1.39 ± 0.18.

In the case of CGAGAGCAAUAUUACGGGUC, the “self-splicing fitness (ln)” value (37 °C) is reported as -0.826 ± 0.23.

In the case of CGAGAGCAAUAUUACGUAGA, the “self-splicing fitness (ln)” value (30 °C) is reported as -1.62 ± 0.2 and the “self-splicing fitness (ln)” value (37 °C) is reported as -1.68 ± 0.3.

For CGAGAGCAAUAUUACGUCCU, the “self-splicing fitness (ln)” value (30 °C) was -2.98 ± 0.39.

With CGAGAGCAAUAUUACGUUAG the “self-splicing fitness (ln)” value (30 °C) was -4.23 ± 0.36 and the “self-splicing fitness (ln)” value (37 °C) was -2.24 ± 0.29.

With CGAGAGCAAUAUUACGUUUU the “self-splicing fitness (ln)” value (30 °C) was -3.09 ± 0.24 and the “self-splicing fitness (ln)” value (37 °C) was -2.79 ± 0.25.

For CGAUAGCAAUAUUACGAAAG, the “self-splicing fitness (ln)” value (30 °C) was -0.907 ± 0.089 and the “self-splicing fitness (ln)” value (37 °C) was -0.699 ± 0.12.

For CGAUAGCAAUAUUACGAUAC, the “self-splicing fitness (ln)” value (37 °C) was -2.88 ± 0.41.

For CGAUAGCAAUAUUACGCCAC, the “self-splicing fitness (ln)” value (30 °C) was -2.44 ± 0.44 and the “self-splicing fitness (ln)” value (37 °C) was -0.944 ± 0.43.

In the case of CGAUAGCAAUAUUACGCCCG, the “self-splicing fitness (ln)” value (30 °C) is reported as -1.39 ± 0.18 and the “self-splicing fitness (ln)” value (37 °C) is reported as -1.44 ± 0.25.

In the case of CGAUAGCAAUAUUACGCCGG, the “self-splicing fitness (ln)” value (30 °C) is reported as -0.546 ± 0.11 and the “self-splicing fitness (ln)” value (37 °C) is reported as -0.0292 ± 0.14.

For CGAUAGCAAUAUUACGCCUA, the “self-splicing fitness (ln)” value (30 °C) was -2.11 ± 0.22 and the “self-splicing fitness (ln)” value (37 °C) was -1.38 ± 0.18.
